From patent publication US20230106247A1 (L AND L BIO CO LTD NINGBO CHINA, published 2023) come the findings set out here.

The target of experiment [1] is T1, human Sirpα-V1-his (human, UniProt P78324 31-373).
T1 construct: range 31-373; Bought (Sino Biological 11612-H08H) or expressed in-house; also called hSirpα-V1; hSirpα-V1-his
The experiment in a line: blocking ELISA, competitor CD47-hFc. How it is done:
(§1) The recombinant proteins such as human Sirpα-V1-hFc/Sirpα-V1-his were diluted to concentrations of 5 μg/mL or 2 μg/mL respectively with a PBS buffer at pH 7.4, and then added into a 96-well ELISA plate (Corning, CLS3590-100EA) at a volume of 50 μL/well, and placed in an incubator at 37° C. for 2 hours. After the liquid was discarded, the wells were added with a blocking solution of 5% skimmed milk (skimmed milk powder available from Bright Dairy) diluted with PBS at 230 μL/well, and incubated in an incubator at 37° C. for 3 hours, or placed overnight at 4° C. (for 16-18 hours) for blocking. […] The plate was washed for 5 times, added with 50 μL/well of streptavidin-HRP (GenScript, M00091) or anti-his-HRP secondary antibody (GenScript, A00612) diluted at 1:1000, incubated at 37° C. for 1 hour, and then washed with PBST for 5 times. Each well was added with 50 μL of TMB (Surmodic, Cat #: TTMB-1000-01) for color development, and added with 50 μL/well of 1 M H₂SO₄ to stop the reaction. The readings on a microplate reader (MultiskanGO Thermo, Model 51119200) were subjected to data analysis by GraphPad prism 5.
A general note: An ELISA detects its analyte on a solid surface through an enzyme-linked reagent.

In experiment [2] the target is T1, human Sirpα-V1-his. The experiment in a line: ELISA.
Experiment [3] addresses T1, human Sirpα-V1-his. The experiment in a line: ELISA. How it is done: (§2) Different antigens (recombinant proteins) such as the human Sirpα-V1-hFc, Sirpα-V1-his, Sirpα-V2-his, Sirpβ-his, Sirpγ-his, monkey Sirpα-his (cynoSirpα-his) or NOD-mSirpα-his described in Example 1 were diluted with a PBS buffer at pH7.4 to concentrations of 1 μg/mL, 2 μg/mL or 5 μg/mL, added into a 96-well ELISA plate (Corning, CLS3590-100EA) at a volume of 50 μL/well, and placed in an incubator at 37° C. for 2 hours. After the liquid was discarded, the wells were added with a blocking solution of 5% skimmed milk (skimmed milk powder available from Bright Dairy) diluted with PBS at 230 μL/well, and incubated in an incubator at 37° C. for 3 hours, or placed overnight at 4° C. (for 16-18 hours) for blocking. […] The plated was washed with PBST for 5 times, then added with 50 μL/well of TMB chromogenic substrate (KPL, Cat #: 52-00-03), incubated at room temperature for 10-15 min, added with 50 μL/well of 1 M H₂SO₄ to stop the reaction, and read by a […] Go microplate reader (ThermoFisher, Cat #: 51119200) for the absorbance value at 450 nm, and then a clone with high binding activity was selected or a EC₅₀ value was calculated according to the OD value. […]
This is another data set of the same source.

Experiment [4] has as its target human Sirpα-V2-his (human). The experiment in a line: ELISA. How it is done:
as §2

Experiment [5] deals with T2, human Sirpα-V1 on CHO-K1 cells (CHO-K1 hSirpα+ cell line) (human, UniProt P78324 31-504).
T2 construct: whole, on cells; also called hSirpα-v1+ cell strain
Put plainly: cell ELISA on CHO-K1 hSirpα+ cells. The source says:
The readings on a microplate reader (MultiskanGO Thermo, Model 51119200) were subjected to data analysis by GraphPad prism 5.
The light and heavy chain variable region sequences of the aforementioned antibody of the present disclosure and the constant regions of different IgG types, for example human IgG1 (hIgG1), human IgG2 (hIgG2), human IgG3 (hIgG3) or human IgG4 (hIgG4), human light chain κ and λ types; murine mIgG1, mIgG2 or mIgG3, murine light chain κ and λ types, etc. were recombined, expressed and purified to obtain an entire human-murine chimeric antibody and a murine antibody.

Experiment [6] addresses T3, human T cells (expressing Sirpγ) (human, UniProt Q9P1W8 29-387).
T3 construct: whole, on cells; The target as printed is the cell; also called human PBMCs (T cells)
The experiment in a line: flow cytometry on PBMC. (A flow cytometer gives signals particle by particle.)

The target of experiment [7] is T4, human Sirpα-V1-hFc (human, UniProt P78324 31-373).
T4 construct: range 31-373; also called hSirpα (dimer); hSirpα-V1-hFc (dimer); not shown: human IgG1 Fc region at the C-terminus
Put plainly: blocking ELISA, competitor CD47-his. On the procedure: as §1

The target of experiment [8] is T4, human Sirpα-V1-hFc. The experiment in a line: blocking ELISA, competitor CD47-his. On the procedure: as §1, with “5. […]” for “5.”
This is another data set of the same source.

Experiment [9] concerns the target T1, human Sirpα-V1-his. Put plainly: blocking ELISA, competitor CD47-hFc. On the procedure: as §1, with “5. […]” for “5.”
This is another data set of the same source.

The target in experiment [10] is T5, Cyno Sirpα L933 (cynomolgus).
T5 construct: extracellular domain; also called Cyno Sirpα polymorphism 2 (L933)
The experiment in a line: ELISA.

The target in experiment [11] is T6, Cyno Sirpα L932 (cynomolgus).
T6 chain: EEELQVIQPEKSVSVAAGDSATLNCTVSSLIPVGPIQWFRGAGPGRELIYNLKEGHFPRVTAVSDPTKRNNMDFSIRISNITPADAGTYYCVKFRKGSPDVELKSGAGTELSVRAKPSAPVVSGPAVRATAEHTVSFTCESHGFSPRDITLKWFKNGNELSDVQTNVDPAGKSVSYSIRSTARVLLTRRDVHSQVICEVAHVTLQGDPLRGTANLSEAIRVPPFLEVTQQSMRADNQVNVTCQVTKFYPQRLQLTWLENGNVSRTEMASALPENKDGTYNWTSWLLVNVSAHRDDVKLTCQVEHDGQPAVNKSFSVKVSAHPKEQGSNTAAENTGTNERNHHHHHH
Put plainly: ELISA.

For experiment [12], the target named is T7, Cyno Sirpα L937 (cynomolgus).
T7 construct: also called RB3-5; Cyno Sirpα polymorphism 4 (L937)
T7 chain: T6 chain with A62P
The experiment in a line: ELISA.

Experiment [13] addresses T8, Cyno Sirpα L936 (cynomolgus).
T8 construct: also called RB3-3; Cyno Sirpα polymorphism 3 (L936)
T8 chain: T6 chain with S28T, N51H, L52Q, A62S, D65E, P66S, R77H, L103V, V163F, L185V
Put plainly: ELISA.

Experiment [14] concerns the target T4, human Sirpα-V1-hFc. The experiment in a line: blocking ELISA, competitor CD47-his. On the procedure: (§3) The antigens PD-1 and Sirpα expressed according to the method of Example 1 were diluted with a PBS buffer at pH7.4 to a concentration of 2 μg/mL, added into a 96-well ELISA plate (Corning, CLS3590-100EA) at a volume of 50 μL/well, and incubated at 37° C. for 2 hours. After the liquid was discarded, the wells were added with a blocking solution of 5% skimmed milk (Sangon Biotech (Shanghai) Co., Ltd., A600669-0250) formulated with PBS at 200 μL/well, and incubated at 37° C. for 3 hours for blocking. […] The plate was washed with PBST for 5 times, added with 50 μL/well of HRP-labeled secondary antibody (GenScript Biotechnology Co., Ltd., M00091) diluted at 1:1000, and incubated at 37° C. for 1 hour. The plated was washed with PBST for 5 times, then added with 50 μl/well of TMB chromogenic substrate (KPL, 52-00-03), incubated at room temperature for 5-10 min, added with 50 μl/well of 1 M H₂SO₄ to stop the reaction, and read by a […] Go microplate reader (ThermoFisher, 51119200) for the absorbance value at 450 nm, and then IC₅₀ was calculated according to the OD value.
This is another data set of the same source.

Experiment [15] concerns the target T1, human Sirpα-V1-his. The experiment in a line: ELISA. How it is done:
(§4) The self-expressed human PD-1, Sirpα and the like antigens of the present disclosure were diluted with a PBS buffer at pH7.4 to a concentration of 2 μg/mL according to different assays, and then added into a 96-well ELISA plate (Corning, CLS3590-100EA) at a volume of 50 μL/well, and placed in an incubator at 37° C. for 2 hours. After the liquid was discarded, the wells were added with a blocking solution of 5% skimmed milk (Sangon Biotech (Shanghai) Co., Ltd., A600669-0250) diluted with PBS at 200 μL/well, and incubated in an incubator at 37° C. for 3 hours, or placed overnight at 4° C. (for 16-18 hours) for blocking. The blocking solution was discarded, and the plate was washed with a PBST buffer (pH7.4 PBS containing 0.05% tween-20) for 5 times, then added with 50 μL/well of 5-fold serial dilution of the antibody to be tested in 1% BSA, and incubated at 37° C. for 1 hour. […] The plated was washed with PBST for 5 times, then added with 50 μL/well of TMB chromogenic substrate (KPL, 52-00-03), incubated at room temperature for 5-10 min, added with 50 μL/well of 1 M H₂SO₄ to stop the reaction, and read by a […] Go microplate reader (ThermoFisher, 51119200) for the absorbance value at 450 nm, and then EC₅₀ was calculated according to the OD value.
(§5) The aforementioned bispecific antibodies were cloned, expressed and purified according to the cloning, expression and purification methods of Example 1 of the present disclosure.
This is another data set of the same source.

The target of experiment [16] is T9, human PD-1 (recombinant, hFc/his tag) (human, UniProt Q15116 21-167).
T9 construct: not shown: hFc or his tag
The experiment in a line: ELISA. On the procedure: as §4, §5

In experiment [17] the target is T1, human Sirpα-V1-his. The experiment in a line: blocking ELISA, competitor CD47-hFc. On the procedure: as §3
This is another data set of the same source.

Experiment [18] addresses T9, human PD-1 (recombinant, hFc/his tag). The experiment in a line: blocking ELISA, competitor PD-L1. On the procedure: as §3

Substitutions are numbered along the chain they refer to. Like-named read-outs stand apart in the source and are kept apart here.

As a reminder, the IC50 is the concentration that gives 50% inhibition. Usually EC50 stands for the midpoint of the concentration-response curve.

B1: human-murine chimeric antibody mab14c (antibody, human IgG4 S228P, kappa, V domains shown)
VH: QVHLQQPGAELVKPGASVKLSCKASGYNFNIYWINWVKQRPGQGLEWIGNIYPSSISTNYNEKFKTKATLTVDKSSNTVYMQFSSLTSEDSAVYYCARSEGTYYGGRYEGDWFGYWGQGTLVTVSA
VL: DIQMTQTTSSLSASLGDRVTISCRASQDIRNYLNWYQQKPDGTVKLLIYFTSTLHSGVPSRFSGSGSGTDYSLTISNLEQEDIATYFCQQGNTLPWTFGGGTKLEIKR
notes: hIgG4, κ
As to B1, the IC50 was 9.98 nM in experiment [1], 5.48 nM in [7], 5.7 nM in [8] and 5.54 nM in experiment [9]. In addition, the EC50 in experiment [2] is 0.093 nM; in [3] it was 0.16 nM; in experiment [4] it was 0.14 nM; in [5] it was 0.29 nM; in [10], 0.14 nM; in [11] it was 0.1 nM. Further, the concentration for a half-maximal effect (EC50) in [12] and in [13] was 0.099 nM in each case. Besides, the binding result in experiment [6] is “no binding (tested: 10 µg/mL)”.

B2: bispecific antibody LB504 (bispecific antibody, human IgG4 S228P, kappa)
light: EIVLTQSPATLSLSPGERATLSCRASKGVSTSGYSYLHWYQQKPGQAPRLLIYLASYLESGVPARFSGSGSGTDFTLTISSLEPEDFAVYYCQHSRDLPLTFGGGTKVEIKRTVAAPSVFIFPPSDEQLKSGTASVVCLLNNFYPREAKVQWKVDNALQSGNSQESVTEQDSKDSTYSLSSTLTLSKADYEKHKVYACEVTHQGLSSPVTKSFNRGEC
heavy: not shown
notes: mab14-h16 scFv at the C-terminus of the Pem heavy chain
For the molecule B2, the IC50 in [14] was 4.62 nM; in experiment [17] it was 6.63 nM; in experiment [18] it was 1.09 nM. Also, the EC50 in experiment [15] came to 0.055 nM; in [16], 0.061 nM.
